B1: Retinoic acid receptor RXR-alpha, residues 132 to 208; numbered along this chain, P19793 (parent)
chain: KHICAICGDRSSGKHYGVYSCEGCKGFFKRTVRKDLTYTCRDNKDCLIDKRQRNRCQYCRYQKCLAMGMKREAVQEE

Variants of: B1
Assay: abundance fitness (aPCA) (normalised: wild type 0, dead -1); higher = more abundant; growth selection in yeast, the domain comes from the species named
Conditions: Homo sapiens

Abundance fitness: each site, then its substitutions
S20: Y -0.025
C21: A -1.07 | D -0.413 | E -0.845 | F -0.962 | G -0.956 | H -0.933 | I -1.12 | L -0.986 | M -0.827 | N -0.803 | P -0.9 | Q -1.02 | S -0.98 | T -1.05 | W -1.03 | Y -0.676
E22: A -0.048 | C -0.043 | D -0.062 | F -0.097 | G 0.031 | H -0.104 | I -0.011 | K 0.015 | M -0.136 | N -0.079 | P -0.037 | Q -0.094 | R -0.002 | S -0.063 | V -0.053 | W -0.007 | Y -0.135
G23: A -0.082 | C -0.258 | D 0.049 | E -0.039 | F -0.424 | H -0.089 | I -0.407 | K -0.128 | L -0.407 | M -0.305 | N -0.269 | P -0.126 | Q -0.157 | R -0.037 | S -0.288 | T -0.256 | V -0.144 | W -0.015 | Y -0.312
C24: A -0.875 | D -0.049 | E -0.559 | F -0.889 | G -0.945 | H -0.971 | I -0.987 | K -1.15 | L -1.01 | M -1.18 | N -1.18 | P -0.904 | Q -0.891 | R -0.958 | S -1 | V -0.917 | W -1.01 | Y -1.09
G26: A 0.002 | C -0.077 | D 0.024 | E -0.043 | F -0.138 | H -0.021 | I -0.116 | L -0.132 | M -0.071 | N -0.123 | P -0.503 | Q 0.038 | R -0.018 | S -0.087 | V 0.007 | W -0.052 | Y -0.081
F27: S 0.004
F28: A -0.49 | C -0.753 | D -0.57 | E -0.289 | H -0.495 | I -0.289 | K -1.13 | L -0.316 | M 0.024 | N -0.653 | P -0.906 | R -0.917 | S -0.824 | T -0.894 | V -0.321 | W -0.024 | Y -0.13
K29: A 0.05 | C -0.223 | D -0.013 | E 0.028 | F -0.035 | G 0.025 | H -0.074 | I -0.163 | L 0.009 | M 0.038 | N 0.027 | P -0.531 | R -0.003 | S -0.059 | T 0.021 | V 0.054 | W 0.003
R30: A -0.162 | C -0.41 | D -0.008 | E -0.041 | F -0.362 | G -0.087 | H -0.252 | I -0.352 | K 0.073 | L -0.178 | M -0.141 | P -0.554 | Q -0.129 | S -0.158 | T -0.124 | V -0.353 | W -0.167
T31: A -0.03 | C -0.005 | E -0.188 | F -0.078 | H -0.132 | I -0.092 | K -0.233 | L -0.136 | M 0 | N -0.114 | P -0.641 | Q -0.079 | R -0.504 | S -0.02 | V -0.003 | W -0.043 | Y -0.094
V32: A -0.013 | E 0.026 | F 0 | G -0.046 | H -0.064 | I -0.083 | K -0.012 | N 0.015 | P -0.298 | Q -0.017
